Experimental data as given in patent US10738294B2, “Tissue factor (TF)—targeted nanotherapy” (Northwestern University, priority 2016, dated 2020).
Values belong to the molecule of their own block, whether it stands above or below them. No end group written: not given here. *: point of attachment. Dodecyl = CCCCCCCCCCCC*

Tests used:
Rat recombinant TF = target: T1, Rat recombinant TF (Rattus norvegicus, UniProt P42533); assay: Plate-based in vitro binding assay of TF-targeting peptides to recombinant TF; conditions: for absorbance (binding to recombinant TF): 450 nm, coated peptides incubated with 75 ng recombinant TF; for dose response of absorbance with recombinant TF: peptide-coated plates, increasing concentrations of recombinant TF
T1 construct: purchased Cloud Clone Corp
T1 sequence (P42533 29-295): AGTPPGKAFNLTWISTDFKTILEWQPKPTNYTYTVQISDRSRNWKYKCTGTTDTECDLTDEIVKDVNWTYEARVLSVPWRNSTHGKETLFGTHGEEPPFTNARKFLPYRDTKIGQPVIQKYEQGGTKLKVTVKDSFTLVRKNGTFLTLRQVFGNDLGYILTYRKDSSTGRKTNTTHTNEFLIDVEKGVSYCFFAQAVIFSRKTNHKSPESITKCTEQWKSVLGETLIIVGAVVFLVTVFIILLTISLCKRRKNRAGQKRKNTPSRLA
Method: A plate-based binding assay for the TF-targeting peptides was performed as follows. Peptides were dissolved in water at a concentration of 60 μM and coated onto BD Falcon OptiLux 96-well plates (BD Biosciences, Franklin Lakes, N.J.) by incubating them at 37° C. for 2 hours, then at 4° C. overnight. Next, wells were blocked using Superblock phosphate buffered saline (PBS) blocking buffer (200 μL per well, Thermo Scientific, Waltham, Mass.) for 2 hours at room temperature, then washed two times with water. Rat recombinant TF (Cloud Clone Corp, Houston, Tex.) was added in amounts of 12.5-75.0 ng, dissolved in PBS for a total volume of 50 μL/well and incubated at room temperature for 4 hours. Plates were rinsed with water twice, then blocked with Superblock PBS blocking buffer for 30 minutes at room temperature. Colorimetric immunodetection was then performed by incubating wells with anti-TF antibody (Cat. #: ab104513, rabbit polyclonal, Abcam, Cambridge, Mass.) dissolved in Superblock PBS blocking buffer (1:5000) at 4° C. overnight. Wells were washed in water 4 times, and then incubated with a secondary goat-anti-rabbit antibody (Thermo scientific, Rockford, Ill.) conjugated to horseradish peroxidase and dissolved 1:5000 in Superblock PBS blocking buffer for 2 hours at room temperature. Wells were then rinsed 4 times in water, developed using TMB developing solution (TMB Substrate, Thermo Scientific, Waltham, Mass.) for 15 minutes, then stopped with 0.18 M H2SO4 (Sigma Aldrich, St. Louis, Mo.). Plates were immediately read using an Epoch plate reader (BioTek, Winooski, Vt.) at 450 nm. Wells were coated in triplicate, and the assay was performed three times. Treatment groups were each peptide as stated above. Negative controls were wells coated with blocking buffer rather than peptide, and positive controls were wells coated with rat recombinant TF (Cloud Clone Corp) at 12.5 and 25 ng/well.

injured liver = assay: Fluorescent microscopy of nanofiber binding in liver and other organs after liver punch injury; type: in vivo; conditions: rat liver punch model, tail vein injection, fluorescently labeled nanofiber
Method: (§1) At the end of 30 minutes, animals were euthanized.
In situ perfusion with 400 mL of a PBS solution was performed, and organs including the kidneys, spleen, lung, uninjured liver, and injured lobe of the liver were collected for tissue processing. Samples were fixed in 2% paraformaldehyde for 2 hours, then 30% sucrose overnight. Samples were then frozen in Tissue-Tek OTC compound (Sakura Finetek, Torrance, Calif.) over liquid nitrogen and stored at −20° C. A LEICA CM 1950 cryostat (LEICA Biosystems, Buffalo Grove, Ill.) was used to cut samples into 10-μm sections, which were stained with 4′,6-diamidino-2-phenylindole (DAPI, Invitrogen, Grand Island, N.Y.), and fixed with ProLong® Gold antifade reagent (Life Technologies, Eugene, Oreg.). […]
Digital images were acquired using a Zeiss LSM-510 microscope (Hallbergmoos, Germany) with a 20× objective. The HE CY3 filter (Zeiss filter #43) using excitation and emission wavelength 550-575 nm and 605-670 nm, respectively, was used to assess PA fluorescence. […] The green fluorescent protein filter (Zeiss filter #38) using excitation and emission wavelengths of 470-495 nm and 525-550 nm, respectively, was used to assess tissue auto-fluorescence.

Sprague Dawley rats = assay: Liver punch hemorrhage model, blood loss; type: in vivo; conditions: % total blood volume, rat liver punch model, 30 minutes, 2.5 mg PA by tail vein
Method: as §1
Blood loss was presented as % total blood volume. […] Data were log transformed for analysis.

Molecule: A2V2K2—C12 (KKAAVVK) [non-specific peptide, non-specific peptide, consisting of the filler peptide, selected as a non-targeted control]
absorbance (binding to recombinant TF) (Rat recombinant TF): 0.2±0.03

Molecule: KKAAVV(K)-C12 (KKAAVVK(Dodecyl)-NH2; not fully specified; printed as KKAAVV(K)-C12) [non-specific PA nanofiber]
fluorescence in injured liver (injured liver): No fluorescence was observed
total blood loss (Sprague Dawley rats): 21±2%

Molecule: RTLAFVRFK
absorbance (binding to recombinant TF) (Rat recombinant TF): 0.28±0.03
dose response of absorbance with recombinant TF (Rat recombinant TF): increased absorbance with increasing concentrations of recombinant TF

B1: recombinant TF: rat recombinant tissue factor (Cloud Clone Corp) coated on wells as positive control (protein)
chain: AGTPPGKAFNLTWISTDFKTILEWQPKPTNYTYTVQISDRSRNWKYKCTGTTDTECDLTDEIVKDVNWTYEARVLSVPWRNSTHGKETLFGTHGEEPPFTNARKFLPYRDTKIGQPVIQKYEQGGTKLKVTVKDSFTLVRKNGTFLTLRQVFGNDLGYILTYRKDSSTGRKTNTTHTNEFLIDVEKGVSYCFFAQAVIFSRKTNHKSPESITKCTEQWKSVLGE
absorbance (binding to recombinant TF) (Rat recombinant TF): 0.32±0.01

Continued, in another order:

absorbance (binding to recombinant TF) (Rat recombinant TF): 0.19±0.3
Molecule: EGRNCETHKDDQL

absorbance (binding to recombinant TF) (Rat recombinant TF): 0.29±0.02
Molecule: RLMTQDCLQQRSK
dose response of absorbance with recombinant TF (Rat recombinant TF): increased absorbance with increasing concentrations of recombinant TF
